Assay [1] has as its target human recombinant Nectin-4 protein (extracellular domain) (human) (UniProt Q96NY8). Description: ELISA, recombinant human Nectin-4 coated on plate.
Assay [2] has as its target full-length human Nectin-4 on cells (human) (UniProt Q96NY8). Description: flow cytometry competition on CHO-Nectin-4 cells; competitor biotinylated human Nectin-1-His. (A flow cytometer gives signals particle by particle.)
Assay [3] shares this target. Description: cell-based or functional assay.
Assay [4] has the same target. Description: flow cytometry, CHO-Nectin-4 cells.
The target is the same in assay [5]. Briefly: flow cytometry, SKBR3 cells (endogenous Nectin-4).

Drawing on patent US12723100, this text covers EC50, Endocytosis EC50 (cell killing with MMAF-conjugated Fab anti-hFc), Nectin-4-CHO cells and Endocytosis EC50 (cell killing with MMAF-conjugated Fab anti-hFc), SKBR3 cells for one molecule.

B1: Positive Control 1 (PC1), in-house Nectin-4-specific antibody based on Enfortumab (AGS-22 M6) (antibody, INN chains, looked up, V domains shown)
VH: EVQLVESGGGLVQPGGSLRLSCAASGFTFSSYNMNWVRQAPGKGLEWVSYISSSSSTIYYADSVKGRFTISRDNAKNSLSLQMNSLRDEDTAVYYCARAYYYGMDVWGQGTTVTVSS
VL: DIQMTQSPSSVSASVGDRVTITCRASQGISGWLAWYQQKPGKAPKFLIYAASTLQSGVPSRFSGSGSGTDFTLTISSLQPEDFATYYCQQANSFPPTFGGGTKVEIKR
Broadly, the EC50 is the concentration that produces a half-maximal response. Turning to B1, the EC50 came to 0.34 nM in assay [1], 0.16 nM in assay [2], 0.04 nM in assay [4] and 0.07 nM in assay [5]. For the same molecule, in assay [3], the Endocytosis EC50 (cell killing with MMAF-conjugated Fab anti-hFc), Nectin-4-CHO cells stood at 0.33 nM. Moreover, the Endocytosis EC50 (cell killing with MMAF-conjugated Fab anti-hFc), SKBR3 cells in assay [3] worked out at 0.39 nM.
